Where two headings read alike, the source gives them in different places. Blank lines part the entries; values can stand above or below the binder they belong to.
How the values were obtained:
[1] = biological target: T1, human CD40 on the cell surface (Raji cells, HEK-Blue CD40L cells, primary human B cells and DCs) (human, UniProt P25942 21-277); assay: flow cytometry (FACS) binding to Raji cells
T1 construct: whole, on cells; One entry is used for all cell-surface human CD40, endogenous or transfected; also called Raji cell surface human CD40
T1 sequence (P25942 21-277): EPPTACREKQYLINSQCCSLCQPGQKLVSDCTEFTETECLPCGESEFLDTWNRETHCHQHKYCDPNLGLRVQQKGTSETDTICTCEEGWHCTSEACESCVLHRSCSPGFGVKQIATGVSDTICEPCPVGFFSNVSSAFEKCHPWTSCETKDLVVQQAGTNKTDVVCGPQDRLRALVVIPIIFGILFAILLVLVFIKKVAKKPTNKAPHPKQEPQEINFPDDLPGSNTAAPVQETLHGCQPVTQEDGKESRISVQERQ

[2] = biological target: T1, human CD40 on the cell surface (Raji …); assay: cell-based or functional assay
[3] = biological target: T1, human CD40 on the cell surface (Raji …); assay: cell-based or functional assay; remark: listed apart in the source
[4] = biological target: T1, human CD40 on the cell surface (Raji …); assay: cell-based or functional assay; remark: listed apart in the source
[5] = biological target: human FcRn antigen (purchased from AcroBiosystem) (human, UniProt P55899 24-297; P61769 21-119); assay: SPR (Biacore), antibody captured on anti-human Fab chip, human FcRn as analyte, steady state model
[6] = biological target: T1, human CD40 on the cell surface (Raji …); assay: cell-based or functional assay; remark: listed apart in the source
[7] = biological target: T2, his-tagged human CD40 recombinant protein (h-CD40-his, Acrobiosystems Cat. #CD0-H5228) (human, UniProt P25942 21-193); assay: SPR (Biacore), antibody captured on anti-human Fc chip, His-tagged CD40 as analyte, 1:1 model
T2 construct: Purchased reagent; also called His-tagged human CD40 antigen; not shown: His tag
T2 sequence (P25942 21-193 limits assumed): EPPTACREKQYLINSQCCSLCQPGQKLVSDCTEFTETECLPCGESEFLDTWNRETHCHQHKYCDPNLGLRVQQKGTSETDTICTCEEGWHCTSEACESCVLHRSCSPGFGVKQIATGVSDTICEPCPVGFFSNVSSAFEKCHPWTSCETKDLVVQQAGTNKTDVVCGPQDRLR

[8] = biological target: T3, his-tagged cynomolgus monkey CD40 recombinant protein (cyno-CD40-his, Acrobiosystems Cat. #CD0-C52H6) (cynomolgus monkey); assay: as above
T3 construct: Purchased reagent

[9] = biological target: T2, his-tagged human CD40 recombinant …; assay: as above; remark: listed apart in the source
[10] = biological target: T3, his-tagged cynomolgus monkey CD40 …; assay: as above; remark: listed apart in the source
[11] = biological target: T1, human CD40 on the cell surface (Raji …); assay: flow cytometry (FACS) binding to Raji cells; remark: listed apart in the source
[12] = biological target: T1, human CD40 on the cell surface (Raji …); assay: cell-based or functional assay; remark: listed apart in the source

EC50 [1]: 1.99 nM
B1: 9E6-L2H1 humanized anti-CD40 antibody (antibody, human IgG1, V domains shown)
VH: EVQLQESGPGLVKPSDTLSLTCTVSGFSLSSYDMSWIRQPPGKGLEWIGAIGGAGGTYYASWAKSRVTISVDTSLNQVSLKLSSVTAADTAVYYCARGWTRLDLWGQGTLVTVSS
VL: DIQLTQSPSFLSASVGDRVTITCQASEDISSNLAWYQQKPGKPPKLLIFPASNLASGVPSRFSGSGSGTEFTLTISSLQPEDFATYYCQGGYWTSTSNFGSGFGGGTKVEIK

EC50 [1]: 1.05 nM
B2: 9E6-L1H2 humanized anti-CD40 antibody (antibody, human IgG1, V domains shown)
VH: QVQVQESGPGLVKPSDTLSLTCTVSGFSLSSYDMSWIRQPPGKGLEWIGAIGGAGGTYYASWAKSRVTISVDTSLNQVSLKLSSVTAADTAVYYCARGWTRLDLWGQGTLVTVSS
VL: DIQLTQSPSFLSASVGDRVTITCQASEDISSNLAWYQQKPGKPPKLLIFPASNLASGVPSRFSGSGSGTEFTLTISSLQPEDFATYYCQGGYWTSTSNFGNVFGGGTKVEIK

EC50 [1]: 1.08 nM
B3: 9E6-L1H1 humanized anti-CD40 antibody (antibody, human IgG1, V domains shown)
VH: EVQLQESGPGLVKPSDTLSLTCTVSGFSLSSYDMSWIRQPPGKGLEWIGAIGGAGGTYYASWAKSRVTISVDTSLNQVSLKLSSVTAADTAVYYCARGWTRLDLWGQGTLVTVSS
VL: DIQLTQSPSFLSASVGDRVTITCQASEDISSNLAWYQQKPGKPPKLLIFPASNLASGVPSRFSGSGSGTEFTLTISSLQPEDFATYYCQGGYWTSTSNFGNVFGGGTKVEIK

EC50 [1]: 1.15 nM
B4: 9E6-L3H2 humanized anti-CD40 antibody (antibody, human IgG1, V domains shown)
VH: QVQVQESGPGLVKPSDTLSLTCTVSGFSLSSYDMSWIRQPPGKGLEWIGAIGGAGGTYYASWAKSRVTISVDTSLNQVSLKLSSVTAADTAVYYCARGWTRLDLWGQGTLVTVSS
VL: DIQLTQSPSFLSASVGDRVTITCQASEDISSNLAWYQQKPGKPPKLLIFPASNLASGVPSRFSGSGSGTEFTLTISSLQPEDFATYYCQGGYWTSTSNFGTGFGGGTKVEIK

EC50 [1]: 1.66 nM
B5: 9E6-L2H2 humanized anti-CD40 antibody (antibody, human IgG1, V domains shown)
VH: QVQVQESGPGLVKPSDTLSLTCTVSGFSLSSYDMSWIRQPPGKGLEWIGAIGGAGGTYYASWAKSRVTISVDTSLNQVSLKLSSVTAADTAVYYCARGWTRLDLWGQGTLVTVSS
VL: DIQLTQSPSFLSASVGDRVTITCQASEDISSNLAWYQQKPGKPPKLLIFPASNLASGVPSRFSGSGSGTEFTLTISSLQPEDFATYYCQGGYWTSTSNFGSGFGGGTKVEIK

EC50 [1]: 1.06 nM
B6: 9E6-L3H1 humanized anti-CD40 antibody (antibody, human IgG1, V domains shown)
VH: EVQLQESGPGLVKPSDTLSLTCTVSGFSLSSYDMSWIRQPPGKGLEWIGAIGGAGGTYYASWAKSRVTISVDTSLNQVSLKLSSVTAADTAVYYCARGWTRLDLWGQGTLVTVSS
VL: DIQLTQSPSFLSASVGDRVTITCQASEDISSNLAWYQQKPGKPPKLLIFPASNLASGVPSRFSGSGSGTEFTLTISSLQPEDFATYYCQGGYWTSTSNFGTGFGGGTKVEIK

EC50 [1]: 0.928 nM
B7: 9E6-L4H1 humanized anti-CD40 antibody (antibody, human IgG1, V domains shown)
VH: EVQLQESGPGLVKPSDTLSLTCTVSGFSLSSYDMSWIRQPPGKGLEWIGAIGGAGGTYYASWAKSRVTISVDTSLNQVSLKLSSVTAADTAVYYCARGWTRLDLWGQGTLVTVSS
VL: DIQLTQSPSFLSASVGDRVTITCQASEDISSNLAWYQQKPGKPPKLLIFPASNLASGVPSRFSGSGSGTEFTLTISSLQPEDFATYYCQGGYWTSTSNFGQGFGGGTKVEIK

B cell activation assay, CD19+CD69+ %, IC50 [2]: 0.14 nM
B cell activation assay, CD19+CD69+ MFI, IC50 [2]: 0.07 nM
B cell activation assay, CD19+CD69+%, Donor 1, IC50 [3]: 0.44 nM
B cell activation assay, CD19+CD69+%, Donor 2, IC50 [3]: 0.52 nM
EC50 [1]: 0.87 nM
IC50 for the inhibition of CD40 reporter gene cell activity (Experiment 2) [4]: 0.5 nM
Kd [5]: 293 nM
IC50 in DC cell activation assay system, CD80 MFI [6]: 3.44 nM
IC50 in DC cell activation assay system, CD86 MFI [6]: 3.72 nM
IC50 in DC cell activation assay system, IL-12/23 p40 [6]: 1.85 nM
IC50 in DC cell activation assay system, TNFα [6]: 0.7 nM
Kd [7]: 0.926 nM
koff [7]: 0.000377 s⁻¹
kon [7]: 407000 M⁻¹ s⁻¹
Kd [8]: 0.294 nM
koff [8]: 0.000138 s⁻¹
kon [8]: 468000 M⁻¹ s⁻¹
Kd [9]: 0.536 nM
koff [9]: 0.000221 s⁻¹
kon [9]: 413000 M⁻¹ s⁻¹
Kd [10]: 0.121 nM
koff [10]: 6.23e-05 s⁻¹
kon [10]: 514000 M⁻¹ s⁻¹
B8: 9E6-L4H2 humanized anti-CD40 antibody (antibody, human IgG1, kappa, N297A)
heavy: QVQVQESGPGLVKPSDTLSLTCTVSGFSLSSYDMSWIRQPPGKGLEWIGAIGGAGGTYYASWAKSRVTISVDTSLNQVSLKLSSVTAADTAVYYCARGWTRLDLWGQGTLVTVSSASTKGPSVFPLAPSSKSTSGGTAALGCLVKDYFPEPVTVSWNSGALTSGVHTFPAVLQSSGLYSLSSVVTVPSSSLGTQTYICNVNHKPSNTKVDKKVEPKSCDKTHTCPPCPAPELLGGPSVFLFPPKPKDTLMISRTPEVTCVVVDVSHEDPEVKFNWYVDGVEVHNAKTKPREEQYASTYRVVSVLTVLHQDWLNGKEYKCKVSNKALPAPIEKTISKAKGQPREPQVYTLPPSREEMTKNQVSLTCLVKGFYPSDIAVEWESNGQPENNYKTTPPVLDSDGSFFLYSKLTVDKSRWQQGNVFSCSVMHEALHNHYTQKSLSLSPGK
light: DIQLTQSPSFLSASVGDRVTITCQASEDISSNLAWYQQKPGKPPKLLIFPASNLASGVPSRFSGSGSGTEFTLTISSLQPEDFATYYCQGGYWTSTSNFGQGFGGGTKVEIKRTVAAPSVFIFPPSDEQLKSGTASVVCLLNNFYPREAKVQWKVDNALQSGNSQESVTEQDSKDSTYSLSSTLTLSKADYEKHKVYACEVTHQGLSSPVTKSFNRGEC
notes: human IgG1 N297A (Eu) heavy chain and kappa light chain

Kd [5]: 39.8 nM
B9: 9E6-L4H2-AAYTE anti-CD40 antibody (IgG1 with L234A, L235A, M252Y, S254T, T256E) (antibody)
heavy: QVQVQESGPGLVKPSDTLSLTCTVSGFSLSSYDMSWIRQPPGKGLEWIGAIGGAGGTYYASWAKSRVTISVDTSLNQVSLKLSSVTAADTAVYYCARGWTRLDLWGQGTLVTVSSASTKGPSVFPLAPSSKSTSGGTAALGCLVKDYFPEPVTVSWNSGALTSGVHTFPAVLQSSGLYSLSSVVTVPSSSLGTQTYICNVNHKPSNTKVDKKVEPKSCDKTHTCPPCPAPEAAGGPSVFLFPPKPKDTLYITREPEVTCVVVDVSHEDPEVKFNWYVDGVEVHNAKTKPREEQYNSTYRVVSVLTVLHQDWLNGKEYKCKVSNKALPAPIEKTISKAKGQPREPQVYTLPPSREEMTKNQVSLTCLVKGFYPSDIAVEWESNGQPENNYKTTPPVLDSDGSFFLYSKLTVDKSRWQQGNVFSCSVMHEALHNHYTQKSLSLSPGK
light: DIQLTQSPSFLSASVGDRVTITCQASEDISSNLAWYQQKPGKPPKLLIFPASNLASGVPSRFSGSGSGTEFTLTISSLQPEDFATYYCQGGYWTSTSNFGQGFGGGTKVEIKRTVAAPSVFIFPPSDEQLKSGTASVVCLLNNFYPREAKVQWKVDNALQSGNSQESVTEQDSKDSTYSLSSTLTLSKADYEKHKVYACEVTHQGLSSPVTKSFNRGEC

EC50 [1]: 0.895 nM
EC50 [11]: 0.608 nM
Reporter gene cell activity IC50 (SEAP, HEK-Blue CD40L cells stimulated with CD40L) [12]: 0.221 nM
B10: 9E6 human-rabbit chimeric anti-CD40 antibody (antibody, V domains shown)
VH: QSVRESEGGLVKPTDTLTLTCTVSGFSLSSYDMSWVRQAPGNGLEWIGAIGGAGGTYYASWAKSRSTITRNTNLNTVTLKMSSLTAADTATYFCARGWTRLDLWGQGTLVTVSS
VL: DIVLTQTPSPVSGAVGGTVTIKCQASEDISSNLAWYQQKPGQPPKLLIFPASNLASGVSSRFKGSGSGTEFTLTISDLECADAATYYCQGGYWTSTSNFGNGFGGGTEVVVK
notes: Rabbit variable regions joined to a human IgG1 constant region with N297A (Eu numbering) and a human kappa constant region

— patent publication US20260207759A1 (SUZHOU SUNCADIA BIOPHARMACEUTICALS, published 2026)
